This is an account of results in patent US20220135670A1 (TESARO, published 2022).

The target of test [1] is T1, LAG-3 (axis label "%LAG-3 OCCUPANCY", DONOR 1 to DONOR 4) (human, UniProt P18627).
T1 construct: full-length, on the cell surface; also called LAG-3 on SEB-stimulated human donor PBMCs
T1 sequence (receptor, looked up): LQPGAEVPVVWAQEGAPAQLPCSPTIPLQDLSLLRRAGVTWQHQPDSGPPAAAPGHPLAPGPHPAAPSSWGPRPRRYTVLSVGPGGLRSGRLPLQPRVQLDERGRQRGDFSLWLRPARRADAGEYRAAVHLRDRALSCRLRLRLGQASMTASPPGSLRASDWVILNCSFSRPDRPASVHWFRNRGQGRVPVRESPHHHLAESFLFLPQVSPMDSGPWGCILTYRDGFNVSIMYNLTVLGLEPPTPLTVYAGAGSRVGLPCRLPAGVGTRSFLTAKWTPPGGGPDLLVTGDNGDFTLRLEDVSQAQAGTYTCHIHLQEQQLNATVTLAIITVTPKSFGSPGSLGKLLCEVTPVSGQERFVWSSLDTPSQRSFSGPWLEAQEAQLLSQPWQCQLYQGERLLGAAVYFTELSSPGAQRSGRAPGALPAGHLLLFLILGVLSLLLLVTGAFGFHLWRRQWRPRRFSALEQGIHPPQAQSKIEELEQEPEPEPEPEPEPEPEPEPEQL
The experiment in a line: receptor occupancy assay on SEB-stimulated human donor PBMCs (4 donors).

In test [2] the target is T2, human LAG-3 expressed on the surface of CHO cells (human, UniProt P18627 23-525).
T2 construct: whole, on cells; also called LAG-3 expressing CHO cells; cell-surface-expressed LAG-3
T2 sequence (looked up): T1 sequence (receptor, looked up)
The experiment in a line: binding to LAG-3 expressing CHO cells.

The target in test [3] is T3, cynomolgus monkey LAG-3 expressed on the surface of CHO cells (cynomolgus monkey).
T3 construct: whole, on cells; also called Cyno LAG-3; LAG-3 expressing CHO cells
The experiment in a line: binding to LAG-3 expressing CHO cells.

Test [4] addresses DyLight 650 (DyL650)-labeled LAG-3 fusion protein. The experiment in a line: flow cytometry competition: antibody titrated against binding of the DyL650-labeled LAG-3 fusion protein to MHC class II on Daudi cells; readout MFI (Dyl650).
For test [5], the target named is T4, LAG-3 expressed on Jurkat cells (Homo sapiens (Human), UniProt P18627 23-525).
T4 sequence: T1 sequence (receptor, looked up)
The experiment in a line: cell-based or functional assay.

Test [6] has as its target T5, recombinant soluble human LAG-3 (human, UniProt P18627 23-450, limits assumed).
T5 construct: also called soluble LAG-3
T5 sequence (looked up): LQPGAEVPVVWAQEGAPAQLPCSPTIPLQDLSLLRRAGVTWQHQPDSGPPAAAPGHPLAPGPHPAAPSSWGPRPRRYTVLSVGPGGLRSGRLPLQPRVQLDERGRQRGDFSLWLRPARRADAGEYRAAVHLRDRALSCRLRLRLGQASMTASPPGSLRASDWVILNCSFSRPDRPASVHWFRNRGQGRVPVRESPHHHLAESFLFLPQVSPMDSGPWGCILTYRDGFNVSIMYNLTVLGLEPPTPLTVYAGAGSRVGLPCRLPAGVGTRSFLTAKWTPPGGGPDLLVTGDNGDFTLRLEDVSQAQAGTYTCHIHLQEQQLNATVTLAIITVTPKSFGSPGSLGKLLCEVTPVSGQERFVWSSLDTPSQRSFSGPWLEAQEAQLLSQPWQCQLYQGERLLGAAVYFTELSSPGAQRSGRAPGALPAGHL
The experiment in a line: SPR, recombinant soluble LAG-3. Background: SPR reads the build-up and loss of mass on a sensor chip optically.

The target of test [7] is T6, recombinant soluble cynomolgus monkey LAG-3 (cynomolgus monkey).
T6 construct: also called Cyno LAG-3; soluble LAG-3
The experiment in a line: SPR, recombinant soluble LAG-3.

B1: anti-LAG-3 antibody agent TSR-033 (antibody, human IgG4 S228P, kappa, V domains shown)
VH: EVQLVQSGAEVKKPGATVKISCKASGFSIKDDYIHWVQQAPGKGLEWMGWIDAMNDDSQYSSKFQGRVTITVDTSTNTAYMKLSSLRSEDTAVYYCTYAFGGYWGQGTTVTVSS
VL: DIVMTQTPLSLSVTPGQPASISCRSSQSLVHSDSNTYLHWYLQKPGQSPQLLIYLVSNRFSGVPDRFSGSGSGTDFTLKISRVEAEDVGVYFCGQSTHVPYAFGGGTKVEIKR
modifications: N-glycosylation at N291 of the heavy chain
notes: also called exemplary anti-LAG-3 antibody agent; exemplary anti-LAG-3 antibody
In the case of B1, in test [1], the EC50 (read off the curve) (in general, the concentration giving half of the maximal effect) was ~0.06 µg/mL. Also, the EC50 (commonly the concentration that produces a half-maximal response) in test [2] was 0.8 nM; in test [3] it was 2.6 nM. The IC50 (in general, the point on the concentration scale where inhibition reaches its midpoint) in test [4] was 3.4 nM. In test [5], the “EC50 (read off the curve); NFAT-luciferase reporter signal (RLU)” value was ~70 nM. Also, the Kd (commonly the constant that tells how readily two partners part at equilibrium) came out at 0.95 nM in test [6] and 2 nM in test [7]. For the same molecule, the koff (in general, the first-order rate constant of dissociation) was determined as 0.00013 s⁻¹ in test [6] and 0.00026 s⁻¹ in test [7].
